Laboratory results: US20160194357A1, “Novel NPR-B Agonists” (published 2016)
Bridges are numbered along the chain shown (N, C = ends). Where no end group is shown, it is not given here.

T1: natriuretic peptide receptor -B (human)
T1 chain: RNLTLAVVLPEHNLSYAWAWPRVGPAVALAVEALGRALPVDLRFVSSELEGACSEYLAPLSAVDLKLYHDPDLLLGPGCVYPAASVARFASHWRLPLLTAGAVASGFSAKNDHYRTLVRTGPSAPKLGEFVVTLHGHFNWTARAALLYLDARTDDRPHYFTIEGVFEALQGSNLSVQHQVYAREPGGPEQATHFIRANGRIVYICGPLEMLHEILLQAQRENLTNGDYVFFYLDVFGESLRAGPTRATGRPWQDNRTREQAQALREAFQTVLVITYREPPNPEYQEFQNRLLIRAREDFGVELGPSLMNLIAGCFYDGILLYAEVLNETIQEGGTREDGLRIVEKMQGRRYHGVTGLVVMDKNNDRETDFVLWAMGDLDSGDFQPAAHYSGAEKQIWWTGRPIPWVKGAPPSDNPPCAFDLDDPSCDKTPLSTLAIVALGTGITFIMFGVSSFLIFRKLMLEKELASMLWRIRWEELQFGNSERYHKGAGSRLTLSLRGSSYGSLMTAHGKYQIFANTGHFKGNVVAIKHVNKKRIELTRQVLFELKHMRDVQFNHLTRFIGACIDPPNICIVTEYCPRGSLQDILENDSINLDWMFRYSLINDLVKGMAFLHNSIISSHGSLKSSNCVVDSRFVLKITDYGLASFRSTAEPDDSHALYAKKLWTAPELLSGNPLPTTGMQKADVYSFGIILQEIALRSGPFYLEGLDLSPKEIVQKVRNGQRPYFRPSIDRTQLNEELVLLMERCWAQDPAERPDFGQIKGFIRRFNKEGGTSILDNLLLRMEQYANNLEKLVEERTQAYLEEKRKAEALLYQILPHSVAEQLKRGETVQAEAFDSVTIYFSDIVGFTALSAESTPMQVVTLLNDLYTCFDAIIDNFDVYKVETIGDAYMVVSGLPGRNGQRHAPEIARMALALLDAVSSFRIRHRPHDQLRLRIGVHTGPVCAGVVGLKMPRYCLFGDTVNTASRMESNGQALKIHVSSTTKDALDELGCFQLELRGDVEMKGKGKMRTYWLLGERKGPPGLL

T2: natriuretic peptide receptor -A (Homo sapiens)
T2 chain: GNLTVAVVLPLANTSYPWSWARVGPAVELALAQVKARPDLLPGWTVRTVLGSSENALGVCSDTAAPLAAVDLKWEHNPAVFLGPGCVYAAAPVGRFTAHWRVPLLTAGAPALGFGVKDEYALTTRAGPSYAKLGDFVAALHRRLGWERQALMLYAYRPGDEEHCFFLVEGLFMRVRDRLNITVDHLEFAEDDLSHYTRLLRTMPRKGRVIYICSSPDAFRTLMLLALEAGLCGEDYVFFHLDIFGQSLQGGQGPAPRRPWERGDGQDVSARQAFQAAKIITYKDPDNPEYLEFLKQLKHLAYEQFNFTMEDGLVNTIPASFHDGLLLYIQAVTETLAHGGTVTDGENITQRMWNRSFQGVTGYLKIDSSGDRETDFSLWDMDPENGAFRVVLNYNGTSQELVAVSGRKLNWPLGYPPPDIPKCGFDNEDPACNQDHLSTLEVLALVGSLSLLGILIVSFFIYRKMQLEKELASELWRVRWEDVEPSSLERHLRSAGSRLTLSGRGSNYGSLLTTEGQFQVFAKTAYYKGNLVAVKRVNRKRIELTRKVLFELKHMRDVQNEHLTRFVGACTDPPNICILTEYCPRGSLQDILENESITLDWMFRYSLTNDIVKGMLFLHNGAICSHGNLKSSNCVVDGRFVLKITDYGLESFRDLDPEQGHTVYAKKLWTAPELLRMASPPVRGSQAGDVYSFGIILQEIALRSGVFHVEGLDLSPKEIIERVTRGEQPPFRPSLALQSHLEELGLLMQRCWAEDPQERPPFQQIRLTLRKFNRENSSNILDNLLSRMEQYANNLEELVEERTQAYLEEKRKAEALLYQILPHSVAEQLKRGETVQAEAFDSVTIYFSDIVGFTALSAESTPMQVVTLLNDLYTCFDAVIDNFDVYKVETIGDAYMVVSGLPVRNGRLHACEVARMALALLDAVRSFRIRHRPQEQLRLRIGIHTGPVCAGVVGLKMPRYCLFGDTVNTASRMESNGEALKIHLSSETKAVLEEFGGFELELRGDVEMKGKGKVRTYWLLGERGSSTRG


How the values were obtained:
[1] = molecular target: T1, natriuretic peptide receptor -B; assay: cell-based or functional assay
[2] = molecular target: T2, natriuretic peptide receptor -A; assay: cell-based or functional assay

| Binder | cyclic GMP production in GTM-3 cells, EC50 [1] [nM] | cyclic GMP production in GTM-3 cells, Emax (maximum activation) [1] [%] | cyclic GMP production in NPR-A transfected 293-T cells, EC50 [2] [nM] |
| --- | --- | --- | --- |
| GLSKGCFGLKLDRIGSMSGLGC (ligand, disulfide 6-22) [C-type natriuretic peptide] | 38.8 | 100 | 1600 |
| SLRRSSCFGGRMDRIGAQSGLGCNSFRY (ligand, disulfide 7-23) [atrial natriuretic peptide] | 1630 | 15 | – |
| MCHFGGRMDRISCYR [mini-ANP] | > 45000 | 0 | 1540 |
